± gives the uncertainty stated by the source.
Assay: self-splicing fitness, log relative to wild type (ln ratio); higher = more splicing; Tetrahymena group I intron in knt gene, E. coli kanamycin selection, DiMSum; sequences stand for … in CUCUCU…GGAGGGAAAAGUUAUCAGGCAUGCACCUGGUAGCUAGUCUUUAAACCAAUAGAUUGCAUCGGUUUAAAAGGCAAGACCGUCAAAUUGCGGGAAAGGGGUCAACAGCCGUUCAGUACCAAGUCUCAGGGGAAACUUUGAGAUGGCCUUGCAAAGGGUAUGGUAAUAAGCUGACGGACAUGGUCCUAACCACGCAGCCAAGUCCUAAGUCAACAGAUCUUCUGUUGAUAUGGAUGCAGUUCACAGACUAAAUGUCGGUCGGGGAAGAUGUAUUCUUCUCAUAAGAUAUAGUCGGACCUCUCCUUAAUGGGAGCUAGCGGAUGAAGUGAUGCAACACUGGAGCCGCUGGGAACUAAUUUGUAUGCGAAAGUAUAUUGAUUAGUUUUGGAGUACUCGUGGUCG
Method in brief: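 Six replicate transformations of E. coli BL21(DE3) with a pET-22b(+) library were grown overnight at 37°C or 30°C. The library randomised all eight P1ex-region intron nucleotides, the intron lying in the knt kanamycin-resistance gene, and plates were LB agar with or without 25 μg/mL kanamycin plus 100 μg/mL carbenicillin, 50 μM IPTG and 0.2% rhamnose. Pooled colonies were amplicon-sequenced on an Illumina HiSeq 2500, and fitness is the DiMSum error-weighted combination of wild-type-normalised replicate fold changes, kanamycin versus none.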

| Sequence | self-splicing fitness (ln) (30 °C) | self-splicing fitness (ln) (37 °C) |
| --- | --- | --- |
| CAAAAGCAAUAUUACGAGCA | -2.5 ± 0.14 | -1.97 ± 0.14 |
| UAACAGCAAUAUUACGAGGA | -3.13 ± 0.2 | -1.49 ± 0.14 |
| UAUGAGCAAUAUUACGCACC | -1.68 ± 0.49 | -0.807 ± 0.36 |
| GUGUAGCAAUAUUACGCAAU | -2.06 ± 0.22 | -1.26 ± 0.18 |
| CCACAGCAAUAUUACGAGUA | -3.68 ± 0.2 | -2.31 ± 0.19 |
| CUGAAGCAAUAUUACGCGUG | -0.382 ± 0.041 | 0.0264 ± 0.063 |
| UCCUAGCAAUAUUACGCUAA | -2.98 ± 0.31 | -3.02 ± 0.29 |
| GGAGAGCAAUAUUACGCUUC | – | -1.31 ± 0.43 |
| CCACAGCAAUAUUACGCUGU | -4.34 ± 0.18 | -3.31 ± 0.27 |
| CAUUAGCAAUAUUACGGCUC | -3.78 ± 0.28 | -1.39 ± 0.18 |
| UUAGAGCAAUAUUACGAUUU | -2.08 ± 0.18 | -1.88 ± 0.26 |
| CUCCAGCAAUAUUACGCAAA | -3.21 ± 0.21 | -2.68 ± 0.26 |
| GGACAGCAAUAUUACGUACU | -1.22 ± 0.097 | -0.317 ± 0.1 |
| AGCGAGCAAUAUUACGCUGG | -3.39 ± 0.28 | -3.38 ± 0.42 |
| AGGUAGCAAUAUUACGACAU | 0 ± 0.009 | – |
| UCUCAGCAAUAUUACGUACC | -3.25 ± 0.46 | -1.69 ± 0.25 |
| UGAGAGCAAUAUUACGUCUA | -1.4 ± 0.11 | -0.679 ± 0.12 |
| CCCGAGCAAUAUUACGGGGA | -3.49 ± 0.21 | -2.14 ± 0.11 |
| CUGAAGCAAUAUUACGCGAU | -0.358 ± 0.071 | 0.0463 ± 0.086 |
| GGCUAGCAAUAUUACGUAAC | -0.594 ± 0.083 | -0.442 ± 0.11 |
| GACUAGCAAUAUUACGCCUG | -0.826 ± 0.12 | -0.091 ± 0.14 |
| AUAGAGCAAUAUUACGUCAC | -1.53 ± 0.22 | -0.0932 ± 0.22 |
| UUUCAGCAAUAUUACGUAUU | -2.08 ± 0.13 | -1.39 ± 0.13 |
| UGCGAGCAAUAUUACGCACG | -2.22 ± 0.28 | -1.98 ± 0.36 |
| AUCUAGCAAUAUUACGAUAA | -2.1 ± 0.22 | -1.1 ± 0.3 |
| CUAGAGCAAUAUUACGUAUG | -0.333 ± 0.084 | 0.333 ± 0.11 |

| Sequence | self-splicing fitness (ln) (30 °C) | self-splicing fitness (ln) (37 °C) |
| --- | --- | --- |
| GUAGAGCAAUAUUACGAGUC | -2.19 ± 0.17 | -1.47 ± 0.24 |
| CUCCAGCAAUAUUACGAUGU | -3.28 ± 0.17 | -2.9 ± 0.21 |
| CAAGAGCAAUAUUACGCUUC | -3.61 ± 0.37 | -2.23 ± 0.43 |
| UUGGAGCAAUAUUACGUUUC | -3.77 ± 0.43 | -3.44 ± 0.42 |
| UCACAGCAAUAUUACGUCAC | -3.17 ± 0.18 | -1.64 ± 0.13 |
| GAGAAGCAAUAUUACGAUGA | -1.04 ± 0.12 | -0.334 ± 0.11 |
| AUAAAGCAAUAUUACGGCCA | 0.232 ± 0.11 | 0.15 ± 0.13 |
| CCCCAGCAAUAUUACGAUUA | -3.4 ± 0.2 | -2.87 ± 0.22 |
| UGAAAGCAAUAUUACGCUUG | -1.8 ± 0.11 | -1.32 ± 0.13 |
| AAUUAGCAAUAUUACGCAGU | -2.78 ± 0.16 | -1.3 ± 0.2 |
| AUGAAGCAAUAUUACGACUU | -0.222 ± 0.099 | -0.0268 ± 0.12 |
| CGUUAGCAAUAUUACGUUGG | -1.45 ± 0.091 | -0.573 ± 0.12 |
| CCCGAGCAAUAUUACGUGCU | -3.55 ± 0.21 | -1.32 ± 0.16 |
| ACUAAGCAAUAUUACGCUAU | -1.88 ± 0.072 | -1.84 ± 0.1 |
| ACAUAGCAAUAUUACGAGUA | -3.54 ± 0.43 | -1.8 ± 0.23 |
| CUUUAGCAAUAUUACGGCUU | -3.62 ± 0.32 | – |
| CGAAAGCAAUAUUACGGGAU | -2.98 ± 0.21 | -2.87 ± 0.27 |
| GAUUAGCAAUAUUACGAGUU | -2.53 ± 0.14 | -0.583 ± 0.11 |
| ACGGAGCAAUAUUACGUCCU | -1.85 ± 0.13 | -1.27 ± 0.15 |
| CGCGAGCAAUAUUACGUGAA | -3.57 ± 0.28 | -2.56 ± 0.35 |
| AUAGAGCAAUAUUACGGUCG | -1.65 ± 0.18 | -1.12 ± 0.23 |
| ACUCAGCAAUAUUACGCAAG | -1.89 ± 0.11 | -0.159 ± 0.087 |
| AUGCAGCAAUAUUACGAUGU | -0.358 ± 0.061 | 0.146 ± 0.085 |
| CCGAAGCAAUAUUACGUGCA | -3.4 ± 0.3 | – |
| GAUUAGCAAUAUUACGGGAU | -2.76 ± 0.2 | -1.14 ± 0.18 |
| UGGCAGCAAUAUUACGUAUA | -1.29 ± 0.097 | 0.00255 ± 0.11 |

| Sequence | self-splicing fitness (ln) (30 °C) | self-splicing fitness (ln) (37 °C) |
| --- | --- | --- |
| GCCCAGCAAUAUUACGACUU | -1.45 ± 0.095 | -0.824 ± 0.1 |
| GUAUAGCAAUAUUACGCCCU | -0.766 ± 0.2 | 0.0529 ± 0.26 |
| GCCCAGCAAUAUUACGUGCA | -1.47 ± 0.083 | -0.691 ± 0.083 |
| AACGAGCAAUAUUACGAGUC | – | -2.63 ± 0.44 |
| UGAUAGCAAUAUUACGGCGG | -0.138 ± 0.095 | -0.142 ± 0.13 |
| AAAGAGCAAUAUUACGGCCC | -3.78 ± 0.37 | -1.59 ± 0.34 |
| CUACAGCAAUAUUACGCCAG | -1.3 ± 0.13 | -0.891 ± 0.16 |
| AUUUAGCAAUAUUACGUGGA | -3.25 ± 0.21 | -2.04 ± 0.16 |
| AUAAAGCAAUAUUACGGCUC | 0.203 ± 0.11 | 1.04 ± 0.15 |
| GCCUAGCAAUAUUACGGCAC | -1.31 ± 0.17 | -0.195 ± 0.14 |
| CAACAGCAAUAUUACGGGCU | -3.65 ± 0.13 | -2.66 ± 0.14 |
| AUCCAGCAAUAUUACGGUGC | -1.6 ± 0.096 | -1.27 ± 0.14 |
| UGUGAGCAAUAUUACGUAUG | -1.22 ± 0.1 | -1.26 ± 0.12 |
| GUACAGCAAUAUUACGACAC | -0.333 ± 0.099 | 0.291 ± 0.11 |
| CUAUAGCAAUAUUACGACGA | -1.82 ± 0.19 | -0.725 ± 0.13 |
| UAACAGCAAUAUUACGAGAG | -3.21 ± 0.18 | -2.46 ± 0.13 |
| GCGAAGCAAUAUUACGGAUU | -1.33 ± 0.13 | -1.17 ± 0.15 |
| CUACAGCAAUAUUACGUAUC | -2.78 ± 0.19 | -3.07 ± 0.24 |
| GAGAAGCAAUAUUACGCCGU | -2.18 ± 0.21 | -1.89 ± 0.21 |
| AUGCAGCAAUAUUACGAACC | -1.17 ± 0.17 | -0.688 ± 0.21 |
| AUACAGCAAUAUUACGGUGU | -3.8 ± 0.2 | -2.18 ± 0.13 |
| CGUCAGCAAUAUUACGCCCG | -1.23 ± 0.17 | -0.0073 ± 0.24 |
| AGCGAGCAAUAUUACGUUUG | -3.44 ± 0.2 | -3.64 ± 0.31 |
| GGCUAGCAAUAUUACGCCAA | -2 ± 0.11 | -0.903 ± 0.16 |
